Literature values in paper PMC7039207.

Molecular target: Vinculin tail D5 (Gallus gallus) (UniProt P12003)

Kd: 100 nM
Substance: Vinculin head D1-D4 (from UniProt P12003)
